Assays:
[1] = target: T1, AnkG 38–855 (AnkG MBD-AI-c protein; MBD + partial AI-c) (rat, UniProt O70511-1 38-855); assay: ITC; VP-ITC MicroCal, 25 °C; proteins in 50 mM Tris-HCl pH 7.8, 1 mM DTT, 1 mM EDTA with 100 mM or 500 mM NaCl as required; who was titrated is not told; conditions: both partners purified
T1 construct: numbers count on: rat AnkG NM_001033984.1 (MBD-UPA); also called AnkG WT; source: E. coli BL21 (DE3), purified (Ni2+-NTA, size exclusion)
T1 sequence (looked up): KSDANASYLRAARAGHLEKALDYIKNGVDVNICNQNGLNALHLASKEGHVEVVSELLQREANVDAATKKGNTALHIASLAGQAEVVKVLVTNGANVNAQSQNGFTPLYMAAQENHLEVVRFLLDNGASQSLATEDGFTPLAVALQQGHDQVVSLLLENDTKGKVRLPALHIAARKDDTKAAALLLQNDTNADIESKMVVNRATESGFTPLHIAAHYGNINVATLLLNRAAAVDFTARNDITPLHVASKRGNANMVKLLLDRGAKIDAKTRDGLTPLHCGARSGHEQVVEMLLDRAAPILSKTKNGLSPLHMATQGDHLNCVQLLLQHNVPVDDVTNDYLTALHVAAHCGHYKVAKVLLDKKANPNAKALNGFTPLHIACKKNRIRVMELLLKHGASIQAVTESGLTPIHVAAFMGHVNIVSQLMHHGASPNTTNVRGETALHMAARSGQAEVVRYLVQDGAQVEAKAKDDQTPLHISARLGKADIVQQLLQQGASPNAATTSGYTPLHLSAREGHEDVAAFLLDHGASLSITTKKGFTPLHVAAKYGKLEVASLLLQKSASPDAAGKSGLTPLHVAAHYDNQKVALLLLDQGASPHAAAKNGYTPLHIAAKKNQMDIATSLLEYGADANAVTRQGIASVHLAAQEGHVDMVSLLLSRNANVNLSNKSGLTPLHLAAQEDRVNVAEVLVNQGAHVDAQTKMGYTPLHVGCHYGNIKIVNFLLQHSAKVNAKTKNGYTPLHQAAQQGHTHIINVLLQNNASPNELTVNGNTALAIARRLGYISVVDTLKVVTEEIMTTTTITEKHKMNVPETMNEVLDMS

[2] = target: T2, AnkB 28–965 (MBD + AI-c + AI-b) (human, UniProt Q01484-2 28-965); assay: as above; conditions: both partners purified
T2 construct: numbers count on: human 220 kDa AnkB NM_020977.3; also called extended MBD containing the entire linker; source: E. coli BL21 (DE3), purified (Ni2+-NTA, size exclusion)
T2 sequence (looked up): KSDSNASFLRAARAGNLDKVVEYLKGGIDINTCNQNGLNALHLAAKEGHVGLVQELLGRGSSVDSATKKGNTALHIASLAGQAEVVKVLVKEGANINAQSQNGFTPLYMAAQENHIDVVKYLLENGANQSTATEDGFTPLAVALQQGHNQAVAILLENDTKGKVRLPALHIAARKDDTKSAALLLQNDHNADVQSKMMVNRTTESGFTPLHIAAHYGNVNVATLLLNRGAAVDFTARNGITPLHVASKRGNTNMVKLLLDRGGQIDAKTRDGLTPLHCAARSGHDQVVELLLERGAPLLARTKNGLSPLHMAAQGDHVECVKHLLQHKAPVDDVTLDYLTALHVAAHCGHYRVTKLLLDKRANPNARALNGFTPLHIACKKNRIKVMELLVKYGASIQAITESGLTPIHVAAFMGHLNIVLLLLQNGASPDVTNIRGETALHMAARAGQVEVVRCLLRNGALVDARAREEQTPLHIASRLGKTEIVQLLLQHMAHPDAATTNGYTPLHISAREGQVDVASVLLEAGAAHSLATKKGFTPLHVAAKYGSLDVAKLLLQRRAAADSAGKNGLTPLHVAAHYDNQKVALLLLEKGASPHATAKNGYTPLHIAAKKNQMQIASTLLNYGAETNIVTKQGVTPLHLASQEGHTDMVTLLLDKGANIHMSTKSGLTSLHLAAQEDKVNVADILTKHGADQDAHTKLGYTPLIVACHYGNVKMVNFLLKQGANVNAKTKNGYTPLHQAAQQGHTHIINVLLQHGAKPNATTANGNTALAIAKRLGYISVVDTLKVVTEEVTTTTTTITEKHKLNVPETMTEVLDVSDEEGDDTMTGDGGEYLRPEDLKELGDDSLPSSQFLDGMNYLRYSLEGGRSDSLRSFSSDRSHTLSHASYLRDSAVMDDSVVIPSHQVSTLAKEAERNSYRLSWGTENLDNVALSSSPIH

binding result [1]: binds | binding result [2]: binds
B1: Nav1.2 (aa 1035–1129) (domain or fragment, mouse, UniProt B1AWN6 1035-1129, looked up)
chain: KALDEIKPLEDLNNKKDSCISNHTTIEIGKDLNYLKDGNGTTSGIGSSVEKYVVDESDYMSFINNPSLTVTVPIAVGESDFENLNTEEFSSESDM
notes: source: E. coli BL21 (DE3), purified (Ni2+-NTA, size exclusion)
